Paper PMC13351892, “Tool antibody fragments reveal multiple conformations of the rhodopsin-Gi signaling complex” (Biophysical Journal, 2025)

Molecular target: T1, human Gαi1 (human, UniProt P63096)
T1 construct: also called Gαi subunit; source: prepared as described (11)
Assay: cryo-EM structure; Rho-Gαiβγ-scFv16-Fab79, mixed 1:1.4:1.4 in 0.02% LMNG, purified by SEC; two conformations at 5.2 and 5.9 Å
Details: both partners purified

T1 sequence (P63096 whole entry): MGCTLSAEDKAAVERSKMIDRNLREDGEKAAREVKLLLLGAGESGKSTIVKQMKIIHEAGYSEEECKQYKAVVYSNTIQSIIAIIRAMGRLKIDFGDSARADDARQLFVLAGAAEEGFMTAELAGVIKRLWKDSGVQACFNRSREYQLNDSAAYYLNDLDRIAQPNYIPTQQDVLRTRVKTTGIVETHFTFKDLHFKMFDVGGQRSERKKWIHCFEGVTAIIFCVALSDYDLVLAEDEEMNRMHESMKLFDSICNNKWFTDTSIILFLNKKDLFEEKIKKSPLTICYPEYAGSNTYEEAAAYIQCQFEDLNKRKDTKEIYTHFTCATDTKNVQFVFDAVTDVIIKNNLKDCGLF

B1: Fab79 (Fab, V domains shown)
VH: EVQLVESGGGLVKPGGSLKLSCAASGFTFSSYAMSWVRQTPEKRLEWVATISSRGLYTYFPDSMKGRFTISRDNAKNTLSLQMSSLRSEDTAMYYCLRGGGYDADYWGQGTTLTVSS
VL: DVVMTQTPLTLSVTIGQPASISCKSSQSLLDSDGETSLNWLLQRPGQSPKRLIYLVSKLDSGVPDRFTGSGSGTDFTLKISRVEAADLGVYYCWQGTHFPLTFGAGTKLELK
notes: Fab79 heavy chain; also in the deposited models PDB 8P13 and 8P15; Fab79 light chain; source: prepared as described (11); from mice immunized with the purified Rho-Gαiβγ complex
binding result: binds
